Test [1] has as its target fibrinogen (species not stated).
The target is the same in test [2]. The source holds these as a separate data set.
The target is the same in test [3]. This is another data set of the same source.
For test [4], the target named is human fibrinogen (in citrated whole blood, plasma or platelet-rich plasma) (human) (UniProt P02671).

“posterior gland hementin (Haementeria ghilianii) (enzyme)” returned a Specific Activity (Units/mg), Stage II material in test [1] of 11500 Units/mg. In test [2], “anterior gland hementin (Haementeria ghilianii) (enzyme)” returned a Specific Activity (Units/mg), Stage III material of 1400 Units/mg. The substance “purified hementin (gland of origin not stated for the experiment) (enzyme)” yielded a fibrinogenolysis assay: fibrinogen breakdown products on HPLC (RP300-C8) in test [3] of 90%. In test [4], this substance yielded a deaggregation of pre-formed ADP-induced platelet aggregates (aggregometer) of 3 min and a loss of coagulability of platelet-rich plasma with thrombin of 10 min.
